Here are results for one molecule from patent US20260274928A1.

The assay addresses 13-strain panel of SARS-CoV-2 variant lineages (RBDs). Nature of the assay: SPR, Fab on captured His-AviTag RBD, single-cycle kinetics. For orientation: Surface plasmon resonance follows binding to a sensor surface in real time, without labels.

B1: S2V29-v37.2 Fab (Fab, V domains shown)
VH: EVQLVESGGSVVQPGRALRLSCAASGITFSSFGMYWVRQAPGKGLEWLGYIAYDGSDTYYADSVKGRFTISRDNSKNTLYLQMNSLRIEDTAVYYCAKDYYPLLSYYYGLDVWGQGTTVTVSS
VL: QSVLTQPRSVSGSPGQSVTISCTGTSSDVGAYNYVSWYQQHPGKAPKFMIYDVDQRPSGVPDRFSGSKSGNTASLIISGLQAEDEADYYCSSYAGSYIWVFGGGTQLTVL
With B1, the Kd (usually the free concentration of one partner at which half of the binding sites on the other are occupied at equilibrium, for simple one-to-one binding) was 50 to 5000 pM and the median KD was found to be 260 pM.
